± gives the standard deviation of the averaged measurements.
Experiment: total protein half-life in vivo (active degradation + dilution); higher = more stable protein
[1] = E. coli NCM3722 delta-clpP delta-lon delta-hslV, growth: N-lim chemostat, doubling time 6 h
[2] = E. coli NCM3722 delta-clpP, growth: N-lim chemostat, doubling time 6 h
[3] = E. coli NCM3722 delta-hslV, growth: N-lim chemostat, doubling time 6 h
[4] = E. coli NCM3722 delta-lon, growth: N-lim chemostat, doubling time 6 h
[5] = E. coli NCM3722 delta-smpB, growth: N-lim chemostat, doubling time 6 h
[6] = wild type E. coli NCM3722, growth: C-lim chemostat, doubling time 3 h
[7] = wild type E. coli NCM3722, growth: C-lim chemostat, doubling time 6 h
[8] = wild type E. coli NCM3722, growth: C-lim chemostat, doubling time 12 h
[9] = wild type E. coli NCM3722, growth: N-lim chemostat, doubling time 6 h
[10] = wild type E. coli NCM3722, growth: N-lim chemostat, doubling time 12 h
[11] = wild type E. coli NCM3722, growth: P-lim chemostat, doubling time 6 h
[12] = wild type E. coli NCM3722, growth: P-lim chemostat, doubling time 12 h

Sequence	total protein half-life in vivo [1] [h]	total protein half-life in vivo [2] [h]	total protein half-life in vivo [3] [h]	total protein half-life in vivo [4] [h]	total protein half-life in vivo [5] [h]	total protein half-life in vivo [6] [h]	total protein half-life in vivo [7] [h]	total protein half-life in vivo [8] [h]	total protein half-life in vivo [9] [h]	total protein half-life in vivo [10] [h]	total protein half-life in vivo [11] [h]	total protein half-life in vivo [12] [h]
MKLQQLRYIVEVVNHNLNVSSTAEGLYTSQPGISKQVRMLEDELGIQIFSRSGKHLTQVTPAGQEIIRIAREVLSKVDAIKSVAGEHTWPDKGSLYIATTHTQARYALPNVIKGFIERYPRVSLHMHQGSPTQIADAVSKGNADFAIATEALHLYEDLVMLPCYHWNRAIVVTPDHPLAGKKAITIEELAQYPLVTYTFGFTGRSELDTAFNRAGLTPRIVFTATDADVIKTYVRLGLGVGVIASMAVDPVADPDLVRVDAHDIFSHSTTKIGFRRSTFLRSYMYDFIQRFAPHLTRDVVDAAVALRSNEEIEVMFKDIKLPEK [P0A9F3]	7.08 ± 0.39	4.65 ± 0.091	5.88 ± 0.65	5.93 ± 0.08	4.96 ± 0.18	2.98 ± 0.23	5.63 ± 0.12	10 ± 1.2	5.41 ± 0.36	11 ± 0.51	4.01 ± 0.32	7.28 ± 0.33
MKLRSVTYALFIAGLAAFSTSSLAAQSLRFGYETSQTDSQHIAAKKFNDLLQERTKGELKLKLFPDSTLGNAQAMISGVRGGTIDMEMSGSNNFAGLSPVMNLLDVPFLFRDTAHAHKTLDGKVGDDLKASLEGKGLKVLAYWENGWRDVTNSRAPVKTPADLKGLKIRTNNSPMNIAAFKVFGANPIPMPFAEVYTGLETRTIDAQEHPINVVWSAKFFEVQKFLSLTHHAYSPLLVVINKAKFDGLSPEFQQALVSSAQEAGNYQRKLVAEDQQKIIDGMKEAGVEVITDLDRKAFSDALGNQVRDMFVKDVPQGADLLKAVDEVQ	4.65	–	–	–	–	3.23 ± 0.18	6.69 ± 0.32	9.23 ± 0.3	–	–	–	–
MKLRWFAFLIVLLAGCSSKHDYTNPPWNAKVPVQRAMQWMPISQKAGAAWGVDPQLITAIIAIESGGNPNAVSKSNAIGLMQLKASTSGRDVYRRMGWSGEPTTSELKNPERNISMGAAYLNILETGPLAGIEDPKVLQYALVVSYANGAGALLRTFSSDRKKAISKINDLDADEFLEHVARNHPAPQAPRYIYKLEQALDAM [P0C960]	–	4.98 ± 0.62	3.8 ± 0.54	3.57 ± 0.47	2.72 ± 0.08	1.97 ± 0.14	2.98 ± 0.34	6.46 ± 0.21	2.84 ± 0.17	3.2	4 ± 0.3	7.81 ± 0.18
MKLSRRSFMKANAVAAAAAAAGLSVPGVARAVVGQQEAIKWDKAPCRFCGTGCGVLVGTQQGRVVACQGDPDAPVNRGLNCIKGYFLPKIMYGKDRLTQPLLRMKNGKYDKEGEFTPITWDQAFDVMEEKFKTALKEKGPESIGMFGSGQWTIWEGYAASKLFKAGFRSNNIDPNARHCMASAVVGFMRTFGMDEPMGCYDDIEQADAFVLWGANMAEMHPILWSRITNRRLSNQNVTVAVLSTYQHRSFELADNGIIFTPQSDLVILNYIANYIIQNNAINQDFFSKHVNLRKGATDIGYGLRPTHPLEKAAKNPGSDASEPMSFEDYKAFVAEYTLEKTAEMTGVPKDQLEQLAQLYADPNKKVISYWTMGFNQHTRGVWANNLVYNLHLLTGKISQPGCGPFSLTGQPSACGTAREVGTFAHRLPADMVVTNEKHRDICEKKWNIPSGTIPAKIGLHAVAQDRALKDGKLNVYWTMCTNNMQAGPNINEERMPGWRDPRNFIIVSDPYPTVSALAADLILPTAMWVEKEGAYGNAERRTQFWRQQVQAPGEAKSDLWQLVQFSRRFKTEEVWPEDLLAKKPELRGKTLYEVLYATPEVSKFPVSELAEDQLNDESRELGFYLQKGLFEEYAWFGRGHGHDLAPFDDYHKARGLRWPVVNGKETQWRYSEGNDPYVKAGEGYKFYGKPDGKAVIFALPFEPAAEAPDEEYDLWLSTGRVLEHWHTGSMTRRVPELHRAFPEAVLFIHPLDAKARDLRRGDKVKVVSRRGEVISIVETRGRNRPPQGLVYMPFFDAAQLVNKLTLDATDPLSKETDFKKCAVKLEKV	4.71	–	5.32 ± 0.18	3.56 ± 0.76	3.46 ± 0.36	2.03 ± 0.31	4.52 ± 0.7	8.61 ± 1.2	4.268 ± 0.041	5.85 ± 2.3	3.574 ± 0.034	> 16
MKLVHMASGLAVAIALAACADKSADIQTPAPAANTSISATQQPAIQQPNVSGTVWIRQKVALPPDAVLTVTLSDASLADAPSKVLAQKAVRTEGKQSPFSFVLSFNPADVQPNARILLSAAITVNDKLVFITDTVQPVINQGGTKADLTLVPVQQTAVPVQASGGATTTVPSTSPTQVNPSSAVPAPTQY	4.41 ± 0.88	6.1 ± 0.34	6.08	6.69 ± 0.2	5.23 ± 0.59	3.57 ± 0.22	5.53 ± 0.0062	11.4 ± 4.4	5.25	9.14 ± 0.82	5.51 ± 0.33	11.8 ± 0.68
MKMTKLATLFLTATLSLASGAALAADSGAQTNNGQANAAADAGQVAPDARENVAPNNVDNNGVNTGSGGTMLHSDGSSMNNDGMTKDEEHKNTMCKDGRCPDINKKVQTGDGINNDVDTKTDGTTQ [P0AAV6]	4.05	4.92 ± 2.1	5.44 ± 0.35	6.63 ± 0.59	3.73 ± 1.6	1.7	5.24	4.86	4.78	10.7 ± 3.5	5.84	10.2 ± 1.1
MKNASTVSEDTASNQEPTLHRGLHNRHIQLIALGGAIGTGLFLGIGPAIQMAGPAVLLGYGVAGIIAFLIMRQLGEMVVEEPVSGSFAHFAYKYWGPFAGFLSGWNYWVMFVLVGMAELTAAGIYMQYWFPDVPTWIWAAAFFIIINAVNLVNVRLYGETEFWFALIKVLAIIGMIGFGLWLLFSGHGGEKASIDNLWRYGGFFATGWNGLILSLAVIMFSFGGLELIGITAAEARDPEKSIPKAVNQVVYRILLFYIGSLVVLLALYPWVEVKSNSSPFVMIFHNLDSNVVASALNFVILVASLSVYNSGVYSNSRMLFGLSVQGNAPKFLTRVSRRGVPINSLMLSGAITSLVVLINYLLPQKAFGLLMALVVATLLLNWIMICLAHLRFRAAMRRQGRETQFKALLYPFGNYLCIAFLGMILLLMCTMDDMRLSAILLPVWIVFLFMAFKTLRRK	5.66	5.51	–	–	5.23 ± 0.36	–	–	–	–	–	–	> 16

From the supplement of paper PMC11246515
